Assay results: patent US20120064110A1
*: point of attachment. NH(propargyl) = C#CCN*

Assay: Circular dichroism measurement of peptide secondary structure
Assay type: physicochemical
Details: aqueous environments; 208 nm and 222 nm signal; FIG. 1 and FIG. 2

In the case of “Acetyl-AADAADKEAAQKAIDAATNAVNAAIEAANAAGG-NHCH2CCH (Ac-AADAADKEAAQKAIDAATNAVNAAIEAANAAGG-{NH(propargyl)}; SMILES C#CCNC(=O)CNC(=O)CNC(=O)[C@H](C)NC(=O)[C@H](C)NC(=O)[C@H](CC(N)=O)NC(=O)[C@H](C)NC(=O)[C@H](C)NC(=O)[C@H](CCC(=O)O)NC(=O)[C@@H](NC(=O)[C@H](C)NC(=O)[C@H](C)NC(=O)[C@H](CC(N)=O)NC(=O)[C@@H](NC(=O)[C@H](C)NC(=O)[C@H](CC(N)=O)NC(=O)[C@@H](NC(=O)[C@H](C)NC(=O)[C@H](C)NC(=O)[C@H](CC(=O)O)NC(=O)[C@@H](NC(=O)[C@H](C)NC(=O)[C@H](CCCCN)NC(=O)[C@H](CCC(N)=O)NC(=O)[C@H](C)NC(=O)[C@H](C)NC(=O)[C@H](CCC(=O)O)NC(=O)[C@H](CCCCN)NC(=O)[C@H](CC(=O)O)NC(=O)[C@H](C)NC(=O)[C@H](C)NC(=O)[C@H](CC(=O)O)NC(=O)[C@H](C)NC(=O)[C@H](C)NC(C)=O)[C@@H](C)CC)[C@@H](C)O)C(C)C)[C@@H](C)CC) [HA54.1]”, the “α-helical structure content by circular dichroism” value (from here on “α-helical structure content”) is reported as “More significant improvement of the α-helical content”.

With “Acetyl-AADAADKEAAQKALDAATNALNAAIEAANAAGG-NHCH2CCH (Ac-AADAADKEAAQKALDAATNALNAAIEAANAAGG-{NH(propargyl)}; SMILES C#CCNC(=O)CNC(=O)CNC(=O)[C@H](C)NC(=O)[C@H](C)NC(=O)[C@H](CC(N)=O)NC(=O)[C@H](C)NC(=O)[C@H](C)NC(=O)[C@H](CCC(=O)O)NC(=O)[C@@H](NC(=O)[C@H](C)NC(=O)[C@H](C)NC(=O)[C@H](CC(N)=O)NC(=O)[C@H](CC(C)C)NC(=O)[C@H](C)NC(=O)[C@H](CC(N)=O)NC(=O)[C@@H](NC(=O)[C@H](C)NC(=O)[C@H](C)NC(=O)[C@H](CC(=O)O)NC(=O)[C@H](CC(C)C)NC(=O)[C@H](C)NC(=O)[C@H](CCCCN)NC(=O)[C@H](CCC(N)=O)NC(=O)[C@H](C)NC(=O)[C@H](C)NC(=O)[C@H](CCC(=O)O)NC(=O)[C@H](CCCCN)NC(=O)[C@H](CC(=O)O)NC(=O)[C@H](C)NC(=O)[C@H](C)NC(=O)[C@H](CC(=O)O)NC(=O)[C@H](C)NC(=O)[C@H](C)NC(C)=O)[C@@H](C)O)[C@@H](C)CC) [SEQHAS]” the “α-helical structure content” value was “More significant improvement of the α-helical content”.

For “Acetyl-AADAADKEAKQKAIDAATNAVNSAIEAANKAGG-NHCH2CCH (Ac-AADAADKEAKQKAIDAATNAVNSAIEAANKAGG-{NH(propargyl)}; SMILES C#CCNC(=O)CNC(=O)CNC(=O)[C@H](C)NC(=O)[C@H](CCCCN)NC(=O)[C@H](CC(N)=O)NC(=O)[C@H](C)NC(=O)[C@H](C)NC(=O)[C@H](CCC(=O)O)NC(=O)[C@@H](NC(=O)[C@H](C)NC(=O)[C@H](CO)NC(=O)[C@H](CC(N)=O)NC(=O)[C@@H](NC(=O)[C@H](C)NC(=O)[C@H](CC(N)=O)NC(=O)[C@@H](NC(=O)[C@H](C)NC(=O)[C@H](C)NC(=O)[C@H](CC(=O)O)NC(=O)[C@@H](NC(=O)[C@H](C)NC(=O)[C@H](CCCCN)NC(=O)[C@H](CCC(N)=O)NC(=O)[C@H](CCCCN)NC(=O)[C@H](C)NC(=O)[C@H](CCC(=O)O)NC(=O)[C@H](CCCCN)NC(=O)[C@H](CC(=O)O)NC(=O)[C@H](C)NC(=O)[C@H](C)NC(=O)[C@H](CC(=O)O)NC(=O)[C@H](C)NC(=O)[C@H](C)NC(C)=O)[C@@H](C)CC)[C@@H](C)O)C(C)C)[C@@H](C)CC) [HA54.4]”, the “α-helical structure content” value was “More significant improvement of the α-helical content”.

For “Acetyl-Ala-Ala-Asp-Lys-Ala-Ser-Thr-Gln-Ala-Ala-Ile-Asp-Gly-Ala-Thr-Asn-Ala-Val-Asn-Ser-Ala-Ile-Glu-Ala-Gly-Gly-NHCH2CCH (Ac-AADKASTQAAIDGATNAVNSAIEAGG-{NH(propargyl)}; SMILES C#CCNC(=O)CNC(=O)CNC(=O)[C@H](C)NC(=O)[C@H](CCC(=O)O)NC(=O)[C@@H](NC(=O)[C@H](C)NC(=O)[C@H](CO)NC(=O)[C@H](CC(N)=O)NC(=O)[C@@H](NC(=O)[C@H](C)NC(=O)[C@H](CC(N)=O)NC(=O)[C@@H](NC(=O)[C@H](C)NC(=O)CNC(=O)[C@H](CC(=O)O)NC(=O)[C@@H](NC(=O)[C@H](C)NC(=O)[C@H](C)NC(=O)[C@H](CCC(N)=O)NC(=O)[C@@H](NC(=O)[C@H](CO)NC(=O)[C@H](C)NC(=O)[C@H](CCCCN)NC(=O)[C@H](CC(=O)O)NC(=O)[C@H](C)NC(=O)[C@H](C)NC(C)=O)[C@@H](C)O)[C@@H](C)CC)[C@@H](C)O)C(C)C)[C@@H](C)CC) [A2]”, the “α-helical structure content” value was “less optimal for forming α-helical structures in aqueous environments”.
